Consider three molecules from PMC6290791, “microRNA-29b mediates fibrotic induction of human xylosyltransferase-I in human dermal fibroblasts via the Sp1 pathway”.

The labels stand for the following.
B1: SP1.2 (dsDNA)
DNA 1: CTGATCGCCCCCACCCCCTTCCTTT
DNA 2: AAAGGAAGGGGGTGGGGGCGATCAG
B2: SP1.4 (dsDNA)
DNA 1: CCCAGGCCCCGCCCTCTCCGCCTCG
DNA 2: CGAGGCGGAGAGGGCGGGGCCTGGG
B3: SP1.3 (dsDNA)
DNA 1: TCCTCCCTCGGCTCCTCCCCCAGGC
DNA 2: GCCTGGGGGAGGAGCCGAGGGAGGA

This series deals with Sp3 (UniProt Q02447 1-781). Briefly: EMSA; 5 mM MgCl2; 10 mM Tris pH 7.5, 50 mM KCl, 1 mM DTT, 75 ng/ul poly(dI-dC), 0.25 mg/ml BSA, 40 fmol probe, 1 ug protein, 20 min room temperature; Sp3 buffer plus 5% glycerol, 5 mM MgCl2, 0.025% NP-40; 6% PAGE in 0.5x TBE. Conditions: protein: commercial; label: 5'-biotin on both strands; blunt.
Sp3, sequence (Q02447 whole entry): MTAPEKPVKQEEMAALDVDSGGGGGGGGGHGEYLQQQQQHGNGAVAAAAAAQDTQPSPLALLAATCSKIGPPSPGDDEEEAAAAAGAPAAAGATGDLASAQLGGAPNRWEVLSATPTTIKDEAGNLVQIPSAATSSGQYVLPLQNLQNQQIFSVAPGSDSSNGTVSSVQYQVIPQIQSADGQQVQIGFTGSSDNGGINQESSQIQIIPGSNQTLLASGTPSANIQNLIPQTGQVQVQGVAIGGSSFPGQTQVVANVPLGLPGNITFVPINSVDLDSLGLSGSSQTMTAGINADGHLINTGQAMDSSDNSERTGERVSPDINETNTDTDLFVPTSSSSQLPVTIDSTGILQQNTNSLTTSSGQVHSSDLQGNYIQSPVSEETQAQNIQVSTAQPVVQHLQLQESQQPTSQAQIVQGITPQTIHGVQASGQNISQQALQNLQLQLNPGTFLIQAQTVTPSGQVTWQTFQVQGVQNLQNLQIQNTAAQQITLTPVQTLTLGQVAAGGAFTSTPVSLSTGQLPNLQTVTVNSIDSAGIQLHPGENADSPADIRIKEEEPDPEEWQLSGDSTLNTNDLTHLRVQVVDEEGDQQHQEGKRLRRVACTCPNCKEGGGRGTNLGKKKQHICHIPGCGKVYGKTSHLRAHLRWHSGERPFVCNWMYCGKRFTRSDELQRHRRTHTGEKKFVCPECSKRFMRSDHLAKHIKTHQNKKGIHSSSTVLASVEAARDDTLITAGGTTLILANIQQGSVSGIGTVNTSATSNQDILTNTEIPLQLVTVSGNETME
In the case of B1, the binding signal was 99.3 % of strongest band.

Turning to B2, the binding signal was 83.4 % of strongest band.

In the case of B3, the binding signal is 100 % of strongest band.
